Measured values taken from paper doi:10.1101/266718 (bioRxiv, 2018).

Molecular target: T1, Dcp1:Dcp2(1-504) (S. pombe, UniProt Q9P805 1-127; O13828 1-504)
T1 sequence (looked up) 1: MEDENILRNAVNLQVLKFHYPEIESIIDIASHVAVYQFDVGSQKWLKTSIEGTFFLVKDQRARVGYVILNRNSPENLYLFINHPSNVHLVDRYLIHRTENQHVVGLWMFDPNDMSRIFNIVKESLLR
T1 sequence (looked up) 2: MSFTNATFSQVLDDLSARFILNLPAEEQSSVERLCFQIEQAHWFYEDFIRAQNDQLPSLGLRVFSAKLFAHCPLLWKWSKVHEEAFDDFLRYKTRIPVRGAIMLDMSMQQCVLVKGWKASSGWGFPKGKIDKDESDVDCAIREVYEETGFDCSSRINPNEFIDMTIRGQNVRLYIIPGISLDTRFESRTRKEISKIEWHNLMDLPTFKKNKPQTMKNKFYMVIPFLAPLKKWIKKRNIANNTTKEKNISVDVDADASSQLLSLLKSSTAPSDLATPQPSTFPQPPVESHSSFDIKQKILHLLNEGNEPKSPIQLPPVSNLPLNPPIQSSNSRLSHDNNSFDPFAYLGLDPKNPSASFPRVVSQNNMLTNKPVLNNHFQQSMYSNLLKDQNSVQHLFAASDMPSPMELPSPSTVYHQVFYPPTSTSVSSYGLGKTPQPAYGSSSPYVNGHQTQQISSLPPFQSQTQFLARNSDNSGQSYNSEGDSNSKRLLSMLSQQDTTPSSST
Experiment: cell-based or functional assay

stimulation of the decapping rate of Dcp1:Dcp2ext by excess Edc3: 30 fold
B1: Edc3 (natural protein, S. pombe, UniProt O94752 1-454, looked up)
chain: MSVADFYGSNVEVLLNNDSKARGVITNFDSSNSILQLRLANDSTKSIVTKDIKDLRILPKNEIMPKNGTKSPSTNSTKLKSAETYSSKNKWSMDCDEEFDFAANLEKFDKKQVFAEFREKDKKDPAKLLVSHNKSPNRNYHHKQNVLGPSVKDEFVDLPSAGSQINGIDAVLSSSSNGHVTPGSKKGSRETLKKKPFVDENIPAELHTTTGDILKPITPEQLSQGIALAIAKTSTDIVVENAAQLLSQFVFSVLGGHKRLSSRNHNSQPLVCILVGSHDHASAAVAAGRRLCAIGIKVVLRLLTPFNVDNRQLLMFQAAGGYIPTENFDQFLNKLTSPIELVVDVLTGFHPSIDKNSHALIQWANDLNVLILSVDIPSGYTVQKKNTAILPKWTLALGAVTTTLAQAALVKQAAGVSVFVGNLGTGSQTWAELGILESQVTGQYLAQISCTSTN
